In publication PMC1971552, “A chelating derivative of alpha-melanocyte stimulating hormone as a potential imaging agent for malignant melanoma” (British Journal of Cancer, 1990):

Tested on: DBA/2 mice bearing Cloudman S91 melanomas
Details: mouse, in vivo
Description: Br. J. Cancer (1990), 62, 919-922 C) Macmillan Press Ltd., 1990 A chelating derivative of oa-melanocyte stimulating hormone as a potential imaging agent for malignant melanoma D.R. Bard, C.G. Knight & D.P. Page-Thomas Strangeways Research Laboratory, Worts' Causeway, Cambridge CB] 4RN, UK Summary A chelating derivative of a-melanocyte stimulating hormone (MSH) has been synthesised, in which two molecules of the hormone are cross-linked by diethylenetriamine pentaacetic acid (DTPA). […] When DBA/2 mice bearing the same tumour were injected with bisMSH-DTPA labelled with the 'y-emitting isotope indium-1Il ("'In), the radioactivity became rapidly associated with the melanoma tissue. […] Uptake of radioactivity by the tumours was inhibited by a 200-fold molar excess of MSH, whereas uptake by liver, kidney, spleen, lung, brain, eye and skin was unaffected. We conclude that bisMSH-DTPA may offer an alternative to antibody targeting in the imaging of malignant melanoma. Malignant melanoma is characterised by a tendency to meta- stasise early and to be resistant to most conventional therapies. The initial surgical management of the disease would benefit if it were possible to discover whether metas- tasis had taken place and to which locations. […]

CSCC[C@H](NC(=O)[C@H](CO)NC(=O)[C@H](Cc1ccc(O)cc1)NC(=O)[C@H](CO)NC(=O)CN(CCN(CCN(CC(=O)O)CC(=O)N[C@@H](CO)C(=O)N[C@@H](Cc1ccc(O)cc1)C(=O)N[C@@H](CO)C(=O)N[C@@H](CCSC)C(=O)N[C@@H](CCC(=O)O)C(=O)N[C@@H](Cc1c[nH]cn1)C(=O)N[C@@H](Cc1ccccc1)C(=O)N[C@@H](CCCNC(=N)N)C(=O)N[C@@H](Cc1c[nH]c2ccccc12)C(=O)NCC(=O)N[C@@H](CCCCN)C(=O)N1CCC[C@H]1C(=O)N[C@H](C(N)=O)C(C)C)CC(=O)O)CC(=O)O)C(=O)N[C@@H](CCC(=O)O)C(=O)N[C@@H](Cc1c[nH]cn1)C(=O)N[C@@H](Cc1ccccc1)C(=O)N[C@@H](CCCNC(=N)N)C(=O)N[C@@H](Cc1c[nH]c2ccccc12)C(=O)NCC(=O)N[C@@H](CCCCN)C(=O)N1CCC[C@H]1C(=O)N[C@H](C(N)=O)C(C)C [bisMSH-DTPA]
crossing of the blood-brain barrier: unable to cross the blood-brain barrier | maximum level in the blood following injection (ip): about 0.8 µg ml-1
